Consider 20 substances from patent US20230135471A1, “UBIQUITIN VARIANTS WITH IMPROVED AFFINITY FOR 53BP1” (Integrated DNA Technologies, Inc., priority 2021, published 2023).

The target of the assay is 53BP1 fragment (a.a. 1221-1718) fused to an adenylate cyclase fragment (two-hybrid) (UniProt Q12888). Briefly: cell-based or functional assay.
Regarding “i53 + K29M two-hybrid fusion (designed binder)”, the Experiment 1 Average Enrichment was 1.6 log2, the Experiment 1 Rep 1 Enrichment is 1.72 log2, the Experiment 1 Rep 2 Enrichment worked out at 1.48 log2 and the Experiment 2 Average Enrichment was found to be 0.9 log2. Further, the Experiment 2 Rep 1 Enrichment amounted to 1.23 log2, the Experiment 2 Rep 2 Enrichment was found to be 0.57 log2, the Percent GFP Positive Rep 1 worked out at 23.9% and the Percent GFP Positive Rep 2 is 16.5%. This substance also had a Percent GFP Positive Rep 3 of 17.8%.

“i53 + K29Q two-hybrid fusion (designed binder)” came in with an Experiment 1 Average Enrichment of 0.05 log2, an Experiment 1 Rep 1 Enrichment of -0.21 log2, an Experiment 1 Rep 2 Enrichment of 0.31 log2 and an Experiment 2 Average Enrichment of -0.04 log2. The Experiment 2 Rep 1 Enrichment is -0.26 log2 and the Experiment 2 Rep 2 Enrichment stood at 0.17 log2.

For “i53 + K29R two-hybrid fusion (designed binder)”, the Experiment 1 Average Enrichment is -0.01 log2, the Experiment 1 Rep 1 Enrichment was -0.07 log2, the Experiment 1 Rep 2 Enrichment is 0.05 log2 and the Experiment 2 Average Enrichment amounted to 0.28 log2. For the same substance, the Experiment 2 Rep 1 Enrichment is 0.45 log2 and the Experiment 2 Rep 2 Enrichment turned out to be 0.1 log2.

The substance “i53 + K33C two-hybrid fusion (designed binder)” gave an Experiment 1 Average Enrichment of 1.96 log2, an Experiment 1 Rep 1 Enrichment of 2.85 log2, an Experiment 1 Rep 2 Enrichment of 1.07 log2 and an Experiment 2 Average Enrichment of 0.77 log2. The substance also came in with an Experiment 2 Rep 1 Enrichment of 0.55 log2 and an Experiment 2 Rep 2 Enrichment of 0.99 log2.

The substance “i53 + K33E two-hybrid fusion (designed binder)” showed an Experiment 1 Average Enrichment of 2.71 log2, an Experiment 1 Rep 1 Enrichment of 2.38 log2, an Experiment 1 Rep 2 Enrichment of 3.03 log2 and an Experiment 2 Average Enrichment of 1.27 log2. The substance further had an Experiment 2 Rep 1 Enrichment of 1.48 log2 and an Experiment 2 Rep 2 Enrichment of 1.05 log2.

“i53 + K33F two-hybrid fusion (designed binder)” gave an Experiment 1 Average Enrichment of 1.77 log2, an Experiment 1 Rep 1 Enrichment of 1.91 log2, an Experiment 1 Rep 2 Enrichment of 1.62 log2 and an Experiment 2 Average Enrichment of 1.02 log2. Besides, the Experiment 2 Rep 1 Enrichment turned out to be 1.16 log2 and the Experiment 2 Rep 2 Enrichment amounted to 0.87 log2.

For the substance “i53 + K33I two-hybrid fusion (designed binder)”, the Experiment 1 Average Enrichment amounted to 2.03 log2, the Experiment 1 Rep 1 Enrichment is 1.91 log2, the Experiment 1 Rep 2 Enrichment is 2.14 log2 and the Experiment 2 Average Enrichment was found to be 0.91 log2. This substance also displayed an Experiment 2 Rep 1 Enrichment of 1.32 log2 and an Experiment 2 Rep 2 Enrichment of 0.5 log2.

Turning to “i53 + K33L two-hybrid fusion (designed binder)”, the Experiment 1 Average Enrichment was 2.53 log2, the Experiment 1 Rep 1 Enrichment is 2.4 log2, the Experiment 1 Rep 2 Enrichment turned out to be 2.65 log2 and the Experiment 2 Average Enrichment is 1.6 log2. The Experiment 2 Rep 1 Enrichment turned out to be 1.67 log2 and the Experiment 2 Rep 2 Enrichment came to 1.53 log2.

In turn, “i53 + K33M two-hybrid fusion (designed binder)” returned an Experiment 1 Average Enrichment of 2.34 log2, an Experiment 1 Rep 1 Enrichment of 2.3 log2, an Experiment 1 Rep 2 Enrichment of 2.37 log2 and an Experiment 2 Average Enrichment of 1.06 log2. The same substance registered an Experiment 2 Rep 1 Enrichment of 1.51 log2 and an Experiment 2 Rep 2 Enrichment of 0.61 log2.

“i53 + K33N two-hybrid fusion (designed binder)” showed an Experiment 1 Average Enrichment of 0.29 log2, an Experiment 1 Rep 1 Enrichment of 0.48 log2, an Experiment 1 Rep 2 Enrichment of 0.1 log2 and an Experiment 2 Average Enrichment of 0.24 log2. Further, the Experiment 2 Rep 1 Enrichment was 0.06 log2 and the Experiment 2 Rep 2 Enrichment turned out to be 0.41 log2.

The substance “i53 + K33Q two-hybrid fusion (designed binder)” showed an Experiment 1 Average Enrichment of 2.9 log2, an Experiment 1 Rep 1 Enrichment of 3.03 log2, an Experiment 1 Rep 2 Enrichment of 2.77 log2 and an Experiment 2 Average Enrichment of 1.48 log2. In addition, the Experiment 2 Rep 1 Enrichment stood at 1.96 log2 and the Experiment 2 Rep 2 Enrichment was found to be 0.99 log2.

“i53 + K33R two-hybrid fusion (designed binder)” showed an Experiment 1 Average Enrichment of 0.42 log2, an Experiment 1 Rep 1 Enrichment of 0.73 log2, an Experiment 1 Rep 2 Enrichment of 0.1 log2 and an Experiment 2 Average Enrichment of 0.37 log2. The substance further gave an Experiment 2 Rep 1 Enrichment of 0.64 log2 and an Experiment 2 Rep 2 Enrichment of 0.1 log2.

“i53 + K33T two-hybrid fusion (designed binder)” gave an Experiment 1 Average Enrichment of 1.77 log2, an Experiment 1 Rep 1 Enrichment of 1.9 log2, an Experiment 1 Rep 2 Enrichment of 1.63 log2 and an Experiment 2 Average Enrichment of 1.41 log2. For the same substance, the Experiment 2 Rep 1 Enrichment is 1.48 log2 and the Experiment 2 Rep 2 Enrichment came out at 1.34 log2.

In the case of “i53 + K33V two-hybrid fusion (designed binder)”, the Experiment 1 Average Enrichment amounted to 2.45 log2, the Experiment 1 Rep 1 Enrichment was 2.71 log2, the Experiment 1 Rep 2 Enrichment amounted to 2.19 log2 and the Experiment 2 Average Enrichment was found to be 1.75 log2. Also, the Experiment 2 Rep 1 Enrichment was 2.03 log2 and the Experiment 2 Rep 2 Enrichment was 1.46 log2.

With “i53 + K33W two-hybrid fusion (designed binder)”, the Experiment 1 Average Enrichment is -1.01 log2, the Experiment 1 Rep 1 Enrichment was -2.04 log2, the Experiment 1 Rep 2 Enrichment was found to be 0.01 log2 and the Experiment 2 Average Enrichment came out at 0.15 log2. The substance also displayed an Experiment 2 Rep 1 Enrichment of 0.35 log2 and an Experiment 2 Rep 2 Enrichment of -0.06 log2.

In turn, “i53 + K33Y two-hybrid fusion (designed binder)” yielded an Experiment 1 Average Enrichment of 1.02 log2, an Experiment 1 Rep 1 Enrichment of 0.63 log2, an Experiment 1 Rep 2 Enrichment of 1.41 log2 and an Experiment 2 Average Enrichment of 0.98 log2. Also, the Experiment 2 Rep 1 Enrichment was determined as 1.03 log2 and the Experiment 2 Rep 2 Enrichment was found to be 0.94 log2.

With “i53 + K48I two-hybrid fusion (designed binder)”, the Experiment 1 Average Enrichment is 0.64 log2, the Experiment 1 Rep 1 Enrichment stood at 0.5 log2, the Experiment 1 Rep 2 Enrichment was 0.77 log2 and the Experiment 2 Average Enrichment was 0.42 log2. The Experiment 2 Rep 1 Enrichment came to 0.35 log2 and the Experiment 2 Rep 2 Enrichment worked out at 0.49 log2.

Substance “i53 + K48L two-hybrid fusion (designed binder)” showed an Experiment 1 Average Enrichment of 0.05 log2, an Experiment 1 Rep 1 Enrichment of 0.05 log2, an Experiment 1 Rep 2 Enrichment of 0.04 log2 and an Experiment 2 Average Enrichment of 0.2 log2. Besides, the Experiment 2 Rep 1 Enrichment stood at 0.28 log2 and the Experiment 2 Rep 2 Enrichment was 0.12 log2.

On to “i53 + K48M two-hybrid fusion (designed binder)”, for which the Experiment 1 Average Enrichment was determined as 0.91 log2, the Experiment 1 Rep 1 Enrichment turned out to be 0.87 log2, the Experiment 1 Rep 2 Enrichment is 0.94 log2 and the Experiment 2 Average Enrichment is 0.67 log2. The substance also returned an Experiment 2 Rep 1 Enrichment of 0.63 log2 and an Experiment 2 Rep 2 Enrichment of 0.7 log2.

The substance “i53 + K48N two-hybrid fusion (designed binder)” showed an Experiment 1 Average Enrichment of -0.04 log2, an Experiment 1 Rep 1 Enrichment of -0.15 log2, an Experiment 1 Rep 2 Enrichment of 0.08 log2 and an Experiment 2 Average Enrichment of 0.06 log2. The same substance had an Experiment 2 Rep 1 Enrichment of 0.09 log2 and an Experiment 2 Rep 2 Enrichment of 0.03 log2.
